Reference: article PMC6888877, “Deconstructing and repurposing the light-regulated interplay between Arabidopsis phytochromes and interacting factors” (Communications Biology, 2019)

Experiments:
P3.AA-EYFP = biological target: T1, P3.AA-EYFP (Arabidopsis thaliana); assay: SEC; 50 µM AtPhyB PCM + 10 µM AtPIF-EYFP (5:1), illuminated with red light (650 nm, 2 min; results say 640 nm), Pfr state; Superdex 200 Increase 10/300 GL; 67 mM sodium phosphate pH 8.0, 200 mM NaCl; settings: both partners purified
T1 chain: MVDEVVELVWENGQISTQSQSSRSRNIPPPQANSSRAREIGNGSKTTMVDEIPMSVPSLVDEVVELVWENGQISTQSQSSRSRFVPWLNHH

P3.A-EYFP = biological target: T2, P3.A-EYFP (Arabidopsis thaliana); assay: as above; settings: both partners purified
T2 chain: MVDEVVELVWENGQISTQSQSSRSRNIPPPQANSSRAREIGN

[1] = biological target: T3, P6 (AtPIF6 1-100 without the N-terminal region preceding APB.A)-EYFP (Arabidopsis thaliana); assay: as above; settings: both partners purified
T3 chain: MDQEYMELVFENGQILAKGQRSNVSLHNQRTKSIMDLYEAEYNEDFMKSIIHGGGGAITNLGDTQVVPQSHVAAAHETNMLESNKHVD

[2] = biological target: T4, AtPIF6 (1-100)-EYFP, P6.100 (Arabidopsis thaliana, UniProt Q8L5W7 1-100); assay: as above; settings: both partners purified
T4 construct: A. thaliana PIF6, residues 1-100; His6-SUMO only on the pET-19b construct that was purified; the pET-28c construct used in lysate has the same AtPIF part, linker and EYFP; also called P6.100-EYFP; source: E. coli BL21(DE3): in crude lysate (pET-28c), and purified (pET-19b; IMAC, SENP2 cleavage, second IMAC, optional anion exchange); not shown: His6-SUMO, N-terminal, cleaved
T4 sequence (looked up): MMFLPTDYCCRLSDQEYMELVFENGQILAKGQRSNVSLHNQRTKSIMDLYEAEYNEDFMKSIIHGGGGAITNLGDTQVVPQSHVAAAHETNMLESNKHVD

P6.As-EYFP = biological target: T5, P6.As-EYFP (Arabidopsis thaliana); assay: as above; settings: both partners purified
T5 chain: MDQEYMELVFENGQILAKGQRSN

P3.AAfus-EYFP = biological target: T6, P3.AAfus-EYFP (Arabidopsis thaliana); assay: as above; settings: both partners purified
T6 chain: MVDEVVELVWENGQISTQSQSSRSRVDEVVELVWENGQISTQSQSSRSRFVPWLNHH

P6.fus-EYFP = biological target: T7, P6.fus-EYFP (Arabidopsis thaliana); assay: as above; settings: both partners purified
T7 chain: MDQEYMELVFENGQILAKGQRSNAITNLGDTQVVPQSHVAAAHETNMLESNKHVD

P6.AA-EYFP = biological target: T8, P6.AA-EYFP (Arabidopsis thaliana); assay: as above; settings: both partners purified
T8 chain: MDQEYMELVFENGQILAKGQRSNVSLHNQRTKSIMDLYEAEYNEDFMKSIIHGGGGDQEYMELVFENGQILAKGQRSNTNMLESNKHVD

[3] = biological target: T9, P3 (AtPIF3 1-100 without the N-terminal region preceding APB.A)-EYFP (Arabidopsis thaliana); assay: as above; settings: both partners purified
T9 chain: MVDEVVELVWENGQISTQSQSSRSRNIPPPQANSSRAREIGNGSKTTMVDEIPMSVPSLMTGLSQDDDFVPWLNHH

P3.As-EYFP = biological target: T10, P3.As-EYFP (Arabidopsis thaliana); assay: as above; settings: both partners purified
T10 chain: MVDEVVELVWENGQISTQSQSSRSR

P6.A-EYFP = biological target: T11, P6.A-EYFP (Arabidopsis thaliana); assay: cell-based or functional assay
T11 chain: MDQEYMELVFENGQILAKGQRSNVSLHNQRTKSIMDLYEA

[4] = biological target: T4, AtPIF6 (1-100)-EYFP, P6.100; assay: cell-based or functional assay
[5] = biological target: T12, AtPIF3 (1-100)-EYFP, P3.100 (Arabidopsis thaliana, UniProt O80536 1-100); assay: cell-based or functional assay
T12 sequence (looked up): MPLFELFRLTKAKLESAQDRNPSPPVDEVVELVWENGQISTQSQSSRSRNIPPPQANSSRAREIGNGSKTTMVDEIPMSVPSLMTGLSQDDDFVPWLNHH

B1: Arabidopsis thaliana phytochrome B photosensory core module (AtPhyB PCM) (domain or fragment, UniProt P14713 1-651, looked up)
chain: MVSGVGGSGGGRGGGRGGEEEPSSSHTPNNRRGGEQAQSSGTKSLRPRSNTESMSKAIQQYTVDARLHAVFEQSGESGKSFDYSQSLKTTTYGSSVPEQQITAYLSRIQRGGYIQPFGCMIAVDESSFRIIGYSENAREMLGIMPQSVPTLEKPEILAMGTDVRSLFTSSSSILLERAFVAREITLLNPVWIHSKNTGKPFYAILHRIDVGVVIDLEPARTEDPALSIAGAVQSQKLAVRAISQLQALPGGDIKLLCDTVVESVRDLTGYDRVMVYKFHEDEHGEVVAESKRDDLEPYIGLHYPATDIPQASRFLFKQNRVRMIVDCNATPVLVVQDDRLTQSMCLVGSTLRAPHGCHSQYMANMGSIASLAMAVIINGNEDDGSNVASGRSSMRLWGLVVCHHTSSRCIPFPLRYACEFLMQAFGLQLNMELQLALQMSEKRVLRTQTLLCDMLLRDSPAGIVTQSPSIMDLVKCDGAAFLYHGKYYPLGVAPSEVQIKDVVEWLLANHADSTGLSTDSLGDAGYPGAAALGDAVCGMAVAYITKRDFLFWFRSHTAKEIKWGGAKHHPEDKDDGQRMHPRSSFQAFLEVVKSRSQPWETAEMDAIHSLQLILRDSFKESEAAMNSKVVDGVVQPCRDMAGEQGIDELGA
modifications: covalently incorporated bilin chromophore (PCB; co-expressed Synechocystis sp. heme oxygenase 1 and pcyA)
notes: A. thaliana phytochrome B, photosensory core module (PAS-GAF-PHY with N-terminal extension), residues 1-651; Pr state (far-red light or dark) and Pfr state (red light; Pfr/Pr about 0.56/0.44) are told apart by the assays; In the cell experiments other constructs were used (PCM-VP16; PCM 1-650 with CAAX); source: E. coli BL21(DE3), plasmid pDG282, purified (Ni-NTA IMAC, anion exchange)
43 fold: normalized SEAP reporter expression in CHO-K1 cells, split transcription factor (AtPhyB PCM-VP16 + E-protein-AtPIF variant), red light against darkness (P6.A-EYFP)
1: stoichiometry N (P3.AA-EYFP) | stoichiometry N (P3.A-EYFP) | stoichiometry N [1] | stoichiometry N [2] | stoichiometry N (P6.As-EYFP) | stoichiometry N (P3.AAfus-EYFP) | stoichiometry N (P6.fus-EYFP) | stoichiometry N (P6.AA-EYFP) | stoichiometry N [3] | stoichiometry N (P3.As-EYFP)
10 fold: normalized SEAP reporter expression in CHO-K1 cells, split transcription factor (AtPhyB PCM-VP16 + E-protein-AtPIF variant), red light against darkness [5]
4 fold: normalized SEAP reporter expression in CHO-K1 cells, split transcription factor (AtPhyB PCM-VP16 + E-protein-AtPIF variant), red light against darkness [4]
